# B1: Glycerol-3-phosphate dehydrogenase 1-like protein (Homo sapiens), Q8N335 (parent)
# chain: MAAAPLKVCIVGSGNWGSAVAKIIGNNVKKLQKFASTVKMWVFEETVNGRKLTDIINNDHENVKYLPGHKLPENVVAMSNLSEAVQDADLLVFVIPHQFIHRICDEITGRVPKKALGITLIKGIDEGPEGLKLISDIIREKMGIDISVLMGANIANEVAAEKFCETTIGSKVMENGLLFKELLQTPNFRITVVDDADTVELCGALKNIVAVGAGFCDGLRCGDNTKAAVIRLGLMEMIAFARIFCKGQVSTATFLESCGVADLITTCYGGRNRRVAEAFARTGKTIEELEKEMLNGQKLQGPQTSAEVYRILKQKGLLDKFPLFTAVYQICYESRPVQEMLSCLQSHPEHT
# Variants of: B1
# Conditions: with scn5a_human SCN5A
row,Variant,effect of a mutation on the interaction
1,MAAAPLKVCIVGSGNWGSAVAKIIGNNVKKLQKFASTVKMWVFEETVNGRKLTDIINNDHENVKYLPGHKLPENVVAMSNLSEAVQDADLLVFVIPHQFIHRICDEITGRVPKKALGITLIKGIDEGPEGLKLISDIIREKMGIDISVLMGANIANEVAAEKFCETTIGSKVMENGLLFKELLQTPNFRITVVDDADTVELCGALKNIVAVGAGFCDGLRCGDNTKAAVIRLGLMEMIAFARIFCKGQVSTATFLESCGVADLITTCYGGRNRRVAEAFVRTGKTIEELEKEMLNGQKLQGPQTSAEVYRILKQKGLLDKFPLFTAVYQICYESRPVQEMLSCLQSHPEHT [A280V],with no effect
2,MAAAPLKVCIVGSGNWGSAVAKIIGNNVKKLQKFASTVKMWVFEETVNGRKLTDIINNDHENVKYLPGHKLPENVVAMSNLSKAVQDADLLVFVIPHQFIHRICDEITGRVPKKALGITLIKGIDEGPEGLKLISDIIREKMGIDISVLMGANIANEVAAEKFCETTIGSKVMENGLLFKELLQTPNFRITVVDDADTVELCGALKNIVAVGAGFCDGLRCGDNTKAAVIRLGLMEMIAFARIFCKGQVSTATFLESCGVADLITTCYGGRNRRVAEAFARTGKTIEELEKEMLNGQKLQGPQTSAEVYRILKQKGLLDKFPLFTAVYQICYESRPVQEMLSCLQSHPEHT [E83K],with no effect

# Reference: IntAct's records for PubMed 19666841
